The values that follow come from article PMC10883268.

Assay [1] concerns the target SecY_(A103C-V353C)EG (E. coli) (UniProt P0AGA2).
For assay [2] the target is unchanged. The source holds these as a separate data set.

Where only a bound is given, the exact number is not on record here.

Chain of SecA (P10408 whole entry): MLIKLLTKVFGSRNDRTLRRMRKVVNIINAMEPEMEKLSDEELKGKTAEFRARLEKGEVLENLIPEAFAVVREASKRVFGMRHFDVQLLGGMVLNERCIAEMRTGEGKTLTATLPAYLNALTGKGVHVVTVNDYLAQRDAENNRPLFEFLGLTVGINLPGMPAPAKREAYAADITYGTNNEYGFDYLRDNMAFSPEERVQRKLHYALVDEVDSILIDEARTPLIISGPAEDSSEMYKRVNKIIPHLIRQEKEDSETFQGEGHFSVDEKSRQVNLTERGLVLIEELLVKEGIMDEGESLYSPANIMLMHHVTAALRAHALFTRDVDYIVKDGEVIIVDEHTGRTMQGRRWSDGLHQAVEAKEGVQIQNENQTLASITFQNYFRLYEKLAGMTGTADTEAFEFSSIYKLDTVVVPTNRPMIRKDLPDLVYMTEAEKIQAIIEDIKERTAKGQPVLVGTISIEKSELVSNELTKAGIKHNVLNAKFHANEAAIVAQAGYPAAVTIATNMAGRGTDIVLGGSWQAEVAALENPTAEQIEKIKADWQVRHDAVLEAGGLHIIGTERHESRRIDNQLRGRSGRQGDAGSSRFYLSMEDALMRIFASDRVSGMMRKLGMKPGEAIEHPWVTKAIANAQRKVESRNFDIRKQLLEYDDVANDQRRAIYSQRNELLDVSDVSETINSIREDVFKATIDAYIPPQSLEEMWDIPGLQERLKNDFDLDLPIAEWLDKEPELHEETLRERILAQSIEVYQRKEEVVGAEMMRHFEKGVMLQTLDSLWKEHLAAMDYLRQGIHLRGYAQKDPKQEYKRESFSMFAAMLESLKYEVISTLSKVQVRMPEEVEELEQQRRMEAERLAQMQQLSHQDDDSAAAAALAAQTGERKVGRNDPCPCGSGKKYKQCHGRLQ

Turning to “SecA (from UniProt P10408 1-901) (enzyme)”, in assay [1], the smFRET between dyes on SecY C103 and C353 in proteoliposomes: balance of open and closed states with 1 µM SecA, no nucleotide, no SS, against SecYEG alone was 2 fold. In assay [2], this substance yielded a smFRET between dyes on SecY C103 and C353 in proteoliposomes: percent of time in the closed state with SecA, no nucleotide (~81% for SecYEG alone) of more than 91%.
